In patent publication US20240270860A1:

Tests used:
Assay in all cases: peptide-array ELISA (CYS.S) [Continued]
LS2…2RPGWY2 = biological target: T1, LS2…2RPGWY2
T1 sequence (peptide, 2 = Cys(ACM)): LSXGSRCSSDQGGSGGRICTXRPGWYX

[1] = biological target: T2, WY2…
T2 sequence (peptide, 2 = Cys(ACM)): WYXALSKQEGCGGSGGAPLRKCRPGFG

[2] = biological target: T3, 2…
T3 sequence (peptide, 2 = Cys(ACM)): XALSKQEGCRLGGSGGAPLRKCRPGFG

[3] = biological target: T4, …2…
T4 sequence (peptide, 2 = Cys(ACM)): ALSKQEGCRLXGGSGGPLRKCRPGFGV

…2RPGWY2AL [4] = biological target: T5, …2RPGWY2AL
T5 sequence (peptide, 2 = Cys(ACM)): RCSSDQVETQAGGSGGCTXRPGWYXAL

[5] = biological target: T6, 2…; remark: listed apart in the source
T6 sequence (peptide, 2 = Cys(ACM)): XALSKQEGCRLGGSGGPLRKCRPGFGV

[6] = biological target: T7, TREQNRI2…
T7 sequence (peptide, 2 = Cys(ACM)): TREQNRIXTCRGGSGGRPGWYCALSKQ

[7] = biological target: T8, QEGCRL2…
T8 sequence (peptide, 2 = Cys(ACM)): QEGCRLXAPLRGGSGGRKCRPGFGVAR

VPE2LS2…2RPGWY2 = biological target: T9, VPE2LS2…2RPGWY2
T9 sequence (peptide, 2 = Cys(ACM)): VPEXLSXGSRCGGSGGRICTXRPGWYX

[8] = biological target: T10, Y2…
T10 sequence (peptide, 2 = Cys(ACM)): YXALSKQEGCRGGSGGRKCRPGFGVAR

E2LS2…2RPGWY2A = biological target: T11, E2LS2…2RPGWY2A
T11 sequence (peptide, 2 = Cys(ACM)): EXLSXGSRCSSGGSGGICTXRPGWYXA

[9] = biological target: T12, QEGCRL2…2…
T12 sequence (peptide, 2 = Cys(ACM)): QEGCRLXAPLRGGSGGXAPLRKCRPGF

S2…2RPGWY = biological target: T13, S2…2RPGWY
T13 sequence (peptide, 2 = Cys(ACM)): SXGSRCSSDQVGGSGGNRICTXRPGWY

…2RPGWY2AL [10] = biological target: T14, …2RPGWY2AL; remark: listed apart in the source
T14 sequence (peptide, 2 = Cys(ACM)): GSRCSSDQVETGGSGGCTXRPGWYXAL

[11] = biological target: T15, KQEGCRL2…
T15 sequence (peptide, 2 = Cys(ACM)): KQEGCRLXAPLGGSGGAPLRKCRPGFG

…2RPGWY2AL [12] = biological target: T16, …2RPGWY2AL; remark: listed apart in the source
T16 sequence (peptide, 2 = Cys(ACM)): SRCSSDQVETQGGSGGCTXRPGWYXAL

[13] = biological target: T17, Y2…; remark: listed apart in the source
T17 sequence (peptide, 2 = Cys(ACM)): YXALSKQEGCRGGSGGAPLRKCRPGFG

[14] = biological target: T18, 2…; remark: listed apart in the source
T18 sequence (peptide, 2 = Cys(ACM)): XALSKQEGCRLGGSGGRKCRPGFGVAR

…2RPGWY2A [15] = biological target: T19, …2RPGWY2A
T19 sequence (peptide, 2 = Cys(ACM)): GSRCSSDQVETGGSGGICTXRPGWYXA

…2RPGWY2 [16] = biological target: T20, …2RPGWY2
T20 sequence (peptide, 2 = Cys(ACM)): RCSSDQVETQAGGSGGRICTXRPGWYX

[17] = biological target: T21, SKQEGCRL2…
T21 sequence (peptide, 2 = Cys(ACM)): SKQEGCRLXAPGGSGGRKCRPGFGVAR

[18] = biological target: T22, KQEGCRL2APLGGSGG2…
T22 sequence (peptide, 2 = Cys(ACM)): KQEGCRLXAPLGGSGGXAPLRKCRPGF

…2GGSGGCT2RPGWY2AL = biological target: T23, …2GGSGGCT2RPGWY2AL
T23 sequence (peptide, 2 = Cys(ACM)): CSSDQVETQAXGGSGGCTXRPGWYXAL

[19] = biological target: T24, …2GGSGG2…
T24 sequence (peptide, 2 = Cys(ACM)): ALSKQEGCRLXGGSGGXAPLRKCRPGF

2…2RPGWY2 = biological target: T25, 2…2RPGWY2
T25 sequence (peptide, 2 = Cys(ACM)): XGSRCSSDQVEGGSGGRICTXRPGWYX

[20] = biological target: T26, QEGCRL2…; remark: listed apart in the source
T26 sequence (peptide, 2 = Cys(ACM)): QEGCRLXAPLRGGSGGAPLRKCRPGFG

VPE2LS2…2RPGWY2A = biological target: T27, VPE2LS2…2RPGWY2A
T27 sequence (peptide, 2 = Cys(ACM)): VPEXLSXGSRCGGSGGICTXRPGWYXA

…2RPGWY2 [21] = biological target: T28, …2RPGWY2; remark: listed apart in the source
T28 sequence (peptide, 2 = Cys(ACM)): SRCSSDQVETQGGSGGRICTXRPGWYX

…2GGSGGICT2RPGWY2A = biological target: T29, …2GGSGGICT2RPGWY2A
T29 sequence (peptide, 2 = Cys(ACM)): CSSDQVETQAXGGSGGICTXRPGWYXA

…2RPGWY2A [22] = biological target: T30, …2RPGWY2A; remark: listed apart in the source
T30 sequence (peptide, 2 = Cys(ACM)): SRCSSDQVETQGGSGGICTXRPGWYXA

[23] = biological target: T31, …2AGGSGG2…
T31 sequence (peptide, 2 = Cys(ACM)): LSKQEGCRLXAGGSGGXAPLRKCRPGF

[24] = biological target: T32, QNRI2…
T32 sequence (peptide, 2 = Cys(ACM)): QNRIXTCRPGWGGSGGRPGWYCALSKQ

[25] = biological target: T33, SKQEGCRL2…; remark: listed apart in the source
T33 sequence (peptide, 2 = Cys(ACM)): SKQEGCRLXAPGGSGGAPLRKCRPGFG

2…2RPGWY2A = biological target: T34, 2…2RPGWY2A
T34 sequence (peptide, 2 = Cys(ACM)): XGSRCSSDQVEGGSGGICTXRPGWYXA

…2…2RPGWY2 = biological target: T35, …2…2RPGWY2
T35 sequence (peptide, 2 = Cys(ACM)): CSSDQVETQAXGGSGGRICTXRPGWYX

VPE2LS2…2RPGWY = biological target: T36, VPE2LS2…2RPGWY
T36 sequence (peptide, 2 = Cys(ACM)): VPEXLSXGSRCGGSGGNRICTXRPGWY

[26] = biological target: T37, EGCRL2…
T37 sequence (peptide, 2 = Cys(ACM)): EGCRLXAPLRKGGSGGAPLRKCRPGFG

PE2LS2…2RPGWY2A = biological target: T38, PE2LS2…2RPGWY2A
T38 sequence (peptide, 2 = Cys(ACM)): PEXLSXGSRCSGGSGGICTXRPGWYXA

[27] = biological target: T39, …2…; remark: listed apart in the source
T39 sequence (peptide, 2 = Cys(ACM)): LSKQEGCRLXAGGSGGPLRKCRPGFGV

[28] = biological target: T40, …2…; remark: listed apart in the source
T40 sequence (peptide, 2 = Cys(ACM)): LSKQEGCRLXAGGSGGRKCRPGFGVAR

PE2LS2…2RPGWY2 = biological target: T41, PE2LS2…2RPGWY2
T41 sequence (peptide, 2 = Cys(ACM)): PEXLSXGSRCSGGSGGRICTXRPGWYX

B1: antagonistic TNFR2 antibody TNFRAB1 (antibody, V domains shown)
VH: EVQLQESGGGLVKPGGSLKLSCAASGFTFSSYVMSWVRQTPEKRLEWVATISSGGSYTYYPDSVKGRFTISRDNAKNTLYLQMSSLRSEDTAMYYCARQRVDGYSSYWYFDVWGAGTAVTVSS
VL: DIVLTQSPAIMSASPGEKVTITCSASSSVYYMYWFQQKPGTSPKLWIYSTSNLASGVPVRFSGSGSGTSYSLTISRMEAEDAATYYCQQRRNYPYTFGGGTKLEIKR
LS2…2RPGWY2
  Raw luminescence data: 546
[1]
  Raw luminescence data: 534
[2]
  Raw luminescence data: 418
[3]
  Raw luminescence data: 446
…2RPGWY2AL [4]
  Raw luminescence data: 319
[5]
  Raw luminescence data: 414
[6]
  Raw luminescence data: 188
[7]
  Raw luminescence data: 426
VPE2LS2…2RPGWY2
  Raw luminescence data: 478
[8]
  Raw luminescence data: 463
E2LS2…2RPGWY2A
  Raw luminescence data: 454
[9]
  Raw luminescence data: 570
S2…2RPGWY
  Raw luminescence data: 666
…2RPGWY2AL [10]
  Raw luminescence data: 464
[11]
  Raw luminescence data: 242
…2RPGWY2AL [12]
  Raw luminescence data: 391
[13]
  Raw luminescence data: 553
[14]
  Raw luminescence data: 443
…2RPGWY2A [15]
  Raw luminescence data: 403
…2RPGWY2 [16]
  Raw luminescence data: 543
[17]
  Raw luminescence data: 430
[18]
  Raw luminescence data: 528
…2GGSGGCT2RPGWY2AL
  Raw luminescence data: 265
[19]
  Raw luminescence data: 560
2…2RPGWY2
  Raw luminescence data: 614
[20]
  Raw luminescence data: 340
VPE2LS2…2RPGWY2A
  Raw luminescence data: 540
…2RPGWY2 [21]
  Raw luminescence data: 568
…2GGSGGICT2RPGWY2A
  Raw luminescence data: 454
…2RPGWY2A [22]
  Raw luminescence data: 388
[23]
  Raw luminescence data: 529
[24]
  Raw luminescence data: 240
[25]
  Raw luminescence data: 220
2…2RPGWY2A
  Raw luminescence data: 402
…2…2RPGWY2
  Raw luminescence data: 597
VPE2LS2…2RPGWY
  Raw luminescence data: 853
[26]
  Raw luminescence data: 312
PE2LS2…2RPGWY2A
  Raw luminescence data: 542
[27]
  Raw luminescence data: 434
[28]
  Raw luminescence data: 474
PE2LS2…2RPGWY2
  Raw luminescence data: 585
